Experimental data taken from article PMC3514405.

Target: BLV nucleocapsid protein (NC) (Bovine leukemia virus, UniProt P03344)
Assay: ITC

Sequence of BLV nucleocapsid protein (NC) (P03344 324-392, tags left off): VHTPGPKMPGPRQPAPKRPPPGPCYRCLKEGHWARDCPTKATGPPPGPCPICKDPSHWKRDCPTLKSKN

For CAACUCUCUG (ssRNA) [SLV-VI linker (10 nt)], the Kd was 92 ± 16 nM.
